Measurements reported in the DeepSol protein solubility set.

Assay: soluble on expression in E. coli; label from the status in PepcDB or PDB records

Row | Sequence | soluble on expression in E. coli
1 | MGSDKIHHHHHHMDTNKLIPLLSDMAIFVTVIEQGNFSKAAKKLGVTPSAVSRQISRLEDALGIKLLQRTTRQLALTESGKLTFDYCKQMVESADQAVNASRSATSTVSGLLRVSAPKSLANKVLRPLFVEFLKCYPDIQLHLKVTDRILDPIHDGVDFLIHINDYPIEALVNIKIGRVEQVLCASPEFLQSHTPPTHPDDLKYLSCICLGENMVDNRWRFINENQQTTVQVAGSYLLNHSDMRRDAIEQGFGIGPLPDYIAQQGIKTGKLIPLLEGWQLTGSYQGDICLQYVQSKYLPNKNRVFIDFMKQKLLIIQPDS | not soluble
2 | MVSTESEIAVRIRGIYSTALTKLLMDRGFKIVQPSDVIAERFGIEKSYEDFDVDIYDKNHGVTIVGTKVEAVKKVFEEEFIDVFFRKLPYKLHGIYKGLVVKRDDRFVYVDIGNVIGTVLIEELPDAAEGDEVVVQVKKHNVLPHLSTLITIPGDYAVLIPKPIGVQRHVKISRKIKDPEERERLRILGLSVDLGEWGVLWRTAAAYKDWNTLRDELVRLSKIADKLKEAEKFSAPAEIIEGREIYEIEFGGGVKKKLDEIRNEVVPTIEGHHQFKSYDPEFTLAVDVAEGILAKLPSQRQKISKGFLEAIITSKGPKVGWIFTLNHVKPDGQIIKIGPGEVIEVSTDPLKVTIKRYLRPGKFYDGLEVPIESGDYAITEIEAGKWWFVHRYYDKDGNLKGEFYNINTPVEIYPDKARYVDLEVDIVRWPDGKKEIIDKEKLKEHYEEGIISEKLYKATLRIAQEVYDRLLEHHHHHH | not soluble
3 | EPPDGKAISDGFNLLQELSAVNRENQLTPLGRQLARLPVDPRMGRMLLEAAKQGSLQEVLIVASAMSVQDVRERPPERQQAADQAHAQWKDAD | not soluble
4 | MWITQEITPYLRKEYTIEAKLLDVRSEHNILEIFKSKDFGEIAMLNRQLLFKNFLHIESELLAHMGGCTKKELKEVLIVDGFDLELAHQLFKYDTHIDFVQADEKILDSFISFFPHFHEVKNNKNFTHAKQLLDLDIKKYDLIFCLQEPDIHRIDGLKRMLKEDGVFISVAKHPLLEHVSMQNALKNMGGVFSVAMPFVAPLRILSNKGYIYASFKTHPLKDLMTPKIEALTSVRYYNEDIHRAAFALPKNLQEVFKDNIKS | soluble
5 | MGSDKIHHHHHHMMFVHIADNHLGYRQYNLDDREKDIYDSFKLCIKKILEIKPDVVLHSGDLFNDLRPPVKALRIAMQAFKKLHENNIKVYIVAGNHEMPRRLGEESPLALLKDYVKILDGKDVINVNGEEIFICGTYYHKKSKREEMLDKLKNFESEAKNYKKKILMLHQGINPYIPLDYELEHFDLPKFSYYALGHIHKRILERFNDGILAYSGSTEIIYRNEYEDYKKEGKGFYLVDFSGNDLDISDIEKIDIECREFVEVNIKDKKSFNEAVNKIERCKNKPVVFGKIKREFKPWFDTLKDKILINKAIIVDDEFIDMPDNVDIESLNIKELLVDYANRQGIDGDLVLSLYKALLNNENWKELLDEYYNTKFRG | not soluble
6 | MGSDKIHHHHHHMQTPSYFTPASFDFLTKLEHNNNREWFKANQAEYELQVRTPALHFIEAMSGSVVDLSPRLTAVAKKVGGSLMRPQRDSRFSKDKTPYKLNVGIQFRHFQAKDVHAPGLYLHLANDGCFIAAGIWHPESKALNAIRHCIDENPKGYQKAIANLTAAGFELSGDSLSRPPRGFDKSHPLIDELKRKDFIAIKDISLEQVCQLDLVDFCAQQYQYTSALMYYLCFALDLDF | not soluble
7 | MGSDKIHHHHHHAAGSPEEDMEDRVRIDPVAGGYYPSISPSAQTRGATPDGETLKDRPIFLLEDGSTIRLVVYDDAKNLLEEYSKAYLVRNAGTSGSSLLYPCEVDDNGAVISSSSTPLYMKAGTYYFRILSPAKALNSKGFVNIGNGEYLLATDDRYTQTAMTAVTITKIDEGGTLNNVQTLYLPPIINQTARMQFTVRAGEGVHTLEMLAEGIEISGIQQPLDNTTSFDWVNGDVLPVKVGDQSASVRITQATRNADNSLVAHTGVLPTDARSHSISVLLNLKVNGNPTQYQMLLTGLYLTAGHSYNYTATVKISNGVTVLTWQNRSWTENVVMDK | not soluble
8 | MGSDKIHHHHHHCKPAARSVITESSLIFTSIHSSYVISTYYKRCVVLSQRKEAVQNMNVYQLKEELIEYAKSIGVDKIGFTTADTFDSLKDRLILQESLGYLSGFEEPDIEKRVTPKLLLPKAKSIVAIALAYPSRMKDAPRSTRTERRGIFCRASWGKDYHDVLREKLDLLEDFLKSKHEDIRTKSMVDTGELSDRAVAERAGIGFSAKNCMITTPEYGSYVYLAEMITNIPFEPDVPIEDMCGSCTKCLDACPTGALVNPGQLNAQRCISFLTQTKGFLPDEFRTKIGNRLYGCDTCQTVCPLNKGKDFHLHPEMEPDPEIAKPLLKPLLAISNREFKEKFGHVSGSWRGKKPIQRNAILALAHFKDASALPELTELMHKDPRPVIRGTAAWAIGKIGDPAYAEELEKALEKEKDEEAKLEIEKGIELLKASGMTKQGLS | not soluble
9 | MYPNLFQPLDLGFTQLKNRVLMGSMHTGLEENKEGLHKLAAFYEERAKGGVGLIVTGGFSPNLRGRLHPFSAEFSKTKHAKAHKVVTEAVHRHGAKIALQLLHAGRYAMHPFSQSASAIRAPIAKFAPSEMSTRQIRNTIQDFANSAELAQLAGYDGVEVMGSEGYLINQFICKRTNMRYDEWGGSYQNRIRFPVEIVKAIREAVGKEFIIIFRLSMLDLVEQGSTFEEVVVLAKALEEAGVTIINTGIGWHEARIPTIATQVPRAAFSWVTEKIKPYLKVPVVTCNRINTPEQAEKILASGQADMVSMARPFLADADFVRKAQEGQSALINTCIGCNQACLDNVFRGKRASCLVNPRACYETEIVVKPAQSKKIAVVGAGPAGLAFATTASERGHQVDLFERNDRIGGQFRLAMQIPGKEEFRETIRYFANRIDQTGVKLHLGCEVQFSDLRGYDEVVIATGVTPRKIALAGLSESSKVVDYQTLIREKTPVGQKVAIVGAGGIGVDVASMLTEPKDQTLDDWLYEWGIDKAIEHPGGLYPYPETTSEREVWLLQRRKGAVGKGPGKTTGWIHKRTLEKRGVHLVGGVQYQKIDEQGLHIERDGKSELIDADSVVICAGQESVRPFEAQWAELGDKLHVIGGADVAGELDAARAIRQGVELAVRL | not soluble
10 | MSEQFEMIAKTFQGLEEILAEELTTLGANDIQIGRRMVSFTGDKRMMYKANFCLRTAIRILKPIKNFTAKDADEVYNQIQAIPWEEYLDVNKTFAIDAVVFSEEFRHSKFVSYKVKDAIVDYFRKKTGKRPSVRINNPDVLLNIHIAQTTCTLSLDSSGESLHRRGYRQEQVDAPLNEVLAAGMLLMTGWRGECDLIDPMCGSGTIPIEAALIARNIAPGVFRKGFAFEKWVDFDSEMFDEIYNDDSQEREFTHKIYGYDNNPKANEIATHNIKAAGVSKDVTLKLQPFQQFEQPQEKSIIVMNPPYGERISTNDLLGLYQMIGERLKHAFVGNEAWVLSYREECFDQIGLKPSKKVPLFNGALECEFRKYEIFDGKYKEFKSQEGEGEEKKETEGNYDTSRPRERKEFKPRGEGEFKPRREGEFKPRREGEFKPRKEGDFKPRREEGSFTRDDRDRKPRGEFRGERDSRAPREFRGNREPRIPKKEEE | not soluble
11 | MSHPWRSRGEKRTIMFGYTPSDTILKYLKDMRDLINRAILNAYSIARSNDDSLPSPITLRRSLKDYYDNNVAYAKHHINPVCRTAIAMLRSYKKNNGRLKVVKAKRLAMRIDSELAKIEDNRLRITIRPNVYEYVDIVDRNKKYSEYSKYPISEVLLTDNRVYITFITGSDDKPVIANNIIGFDLNFKSVDYTVIKDNRIAYVDSIDTYDIAKTQRDYERKRRKIQKHIRNPAKRIRKLKEAKHRQRNIVRDKLQKLTTNIVKNNEDKTFVFEDLTNIKKKGKKHKDHKRDGQSSKRFRTDINRWPYRLFQMFVEYKSKNETLYVDPEGTSSECPVCGGILEHPIWKMSKCDNCGATFDRDRLSSLSIAVRGLHLCGTPFSVSGSASWDSMKDNYLYR | not soluble
12 | MGSDKIHHHHHHMKSIMDSLFDSPVQTARSSSDSDAHNFFKAGPYAPLAARMRPQSLDEVVGQRHLLDSGKPLQRLIAGSGDASVILYGPPGTGKTTIASLISAGTGHEFVGLSALNSGVKEIREVIDQARRNLIHGKRTVLFIDEVHRFSKTQQDALLAAVENRTVLLVAATTENPSFSVVAPLLSRSLILQLKPLTHDDIKTVLLHALQDKRGLDNRITISDEALEQLVLLSGGDARRSLTYLEAASESLADGEELTPEIIRHNVDKAIVRYDRDGDQHYDVVSAFIKSMRGSDVDAALHYLARMIDAGEDPRFIARRLVIHASEDVGMADPQALSVAVAASQAVALIGMPEARINLAQATIHLATAPKSNAVITAIDAALADVKQGKTGPVPAHLRDGHYAGAKQLGNAVGYKYPHDDPRGIVEQQYIPNGLEDVVYYRPSEHGAEQRIESYLGKLRRIVRGQRR | not soluble
13 | MGSDKIHHHHHHVLKKALRQHFRQSCTEQDLHRWFDPLDITLADEKRLEVRFPHRFFAEWFSTQVQGRFESELNTFMGEGTTVEYTTGCCPVLSSSPLPPAAVSKKLSAPFGREYTFETFISNKRNFFPVASARELARQEEEIRYNPFVLCGPAGSGKTHLLRAIANELSKTVYKKHIFISTIDDLGTLFSNNGSGDPAQVRQQLSACHYLLLDDLHRLREQPQLQDELTVLFNSFYDRQKQMVFTCPGKLSELDFLETGLRSRLEWGLIVTMKPPDLEILVTFIQRQCKLHKLQLAKEHVFTLAQRFRDFRHLQGVLNRLTAYRDLVNRTLADTDFEQVLSHTEAGAGRPLTADRIIALCAGRFSLPPKDVTGDKRHQKVVLARQVAMYLCRELMGSSYPVLGRTFGGKDHSTAMYAVKKIKKMIDSDKTTRQLVTELKKQCLSGAE | not soluble
14 | MIEMLLYEDTRMRAVEILRSLPIGNSGVSGLVQLAATLGASVEFRPSIPPFPESLSKKMNKTQKYTSTQMSQKFDNASHSPTK | not soluble
15 | MAIKSVVVGKGTLTLAMKDAHTQALDFSAQVTSAKFQPDSSTGDSITVLSGETIPGKKSFGGHLEIDFLQDFSTNGIVDFSYKNAGKEADFVYTPNTEAKAKLQGTVIIAPLEVGDDVEAIAKSAAKWVVPSLPTFTPGG | not soluble
16 | MTQSDYIESSEHIKDTQIGYCKYGHGPNYILAICGAVGCYKKDWPLKLLSHFPPDQVTIVGIDPPGYGTSRPPERKQEVQRCMKDSEYCLGLMETLKLEPFTVMGWSEGARTTVHVAAKGKEKVNRMIVMAGATKVNHLGAMAFKGMRETNHWLAAGRQPYLDHYSPETLRTQWAALCDVVDQVHSFCGGRFPCDLVLPQVKCPTLVMNGGLDRFCGDPNVCFIPVLKSLAKVEIHAQGGHDFYLKYPKWFSGKVLEFLKSTEKK | not soluble
17 | MTDDKKMFDINEFLKRHLFVKNWVNYRQQSYTKYELMQLIESVEAALSVDDTLAKISPPVTIVGDIHGQYPDLVRVLCNQNSKEDAKKKAAYGFCNSRFVFLGDYVDRGHHSIECISLVFALKVVYPTNYILLRGNHETKSINYTYGFREELVNRLGPIDGFEIWERFNVAFSWMPLACLVGHKILCMHGGISPKLHSLKEINEIDRPVAEILPDSLAQDLLWADPADGQGAMTVRSTPEYVPNGVRGLSFIFNEAAVRDTCKRLNINLIVRAHQMIPEGFKFFADQKLLTIFSAPRYMNETDNHGATLRVETDGKLNIGRFRHKKLLHANSADEITRGDDIPNLERKKSGSMPVKHLKTSSSSSPSHSNGKSKGGEGLSLGKI | not soluble
18 | MGSDKIHHHHHHMFAQVHYPESLSGEELDEYLFKGWFRNGQRIFTTNFLNFDQKIYSAVWLRIHLQSIKSIHALDKLAKRNSRFKITIQPASITPEKEALFEQYKTGVDFTASQSLHTLLFGDSTVDIYNTLELLIHDGNKLIGVGYFDTGKDCAAGITSFYDHAYKKNSLGKYIIMQKIKYCIDQQYSYFYPGYFVPNYPAFDYKLSIGTETLEYLSLSKNTWVSIQAFVTNEDPFQVMLKKLKEFQSVCANYGIEQQIYQYSFFEANIIPSLRGLHLFDFPVFVYLFSEQEDVVNPMVVFDVVNQCYHLIECRSIWKADESIQEEGFYSSHLLKMEKHICSALTATEMSTIIMRSIEESSTFR | not soluble
